# B1: hGFRAL(ECR)-Fab-HPC4 (receptor)
# chain: QTNNCTYLREQCLRDANGCKHAWRVMEDACNDSDPGDPCKMRNSSYCNLSIQYLVESNFQFKECLCTDDFYCTVNKLLGKKCINKSDNVKEDKFKWNLTTRSHHGFKGMWSCLEVAEACVGDVVCNAQLASYLKACSANGNPCDLKQCQAAIRFFYQNIPFNIAQMLAFCDCAQSDIPCQQSKEALHSKTCAVNMVPPPTCLSVIRSCQNDELCRRHYRTFQSKCWQRVTRKCHEDENCISTLSKQDLTCSGSDDCKAAYIDILGTVLQVQCTCRTITQSEESLCKIFQHMLHRKSCFNYPTLSNVKGMALYTRKHANKITLTGFHSPFNGEGGGGSGGGGSDVVMTQTPLSLPVSLGDQASISCRSSQSLLHSNGNTYLHWYLQKPGQSPKLLIYKVSNRFSGVPDRFSGSGSGTDFTLKISRVEAEDLGVYFCSQSTHVPWTFGGGTKLEIKRADAAPTVSIFPPSSEQLTSGGASVVCFLNNFYPKDINVKWKIDGSERQNGVLNSWTDQDSKDSTYSMSSTLTLTKDEYERHNSYTCEATHKTSTSPIVKSFNRNEC
# heavy: EVQIQESGPSLVKPSQTLSLTCSVSGDSITSGYWNWIRKFPGHKIEYMGTISYSGDTYYNPSLKSRISITRDTSKNQYYLHLNSVTTEDTATYYCARYGSYVFDYWGQGTTLTVSSAKTTPPSVYPLAPGSAAQTNSMVTLGCLVKGYFPEPVTVTWNSGSLSSGVHTFPAVLQSDLYTLSSSVTVPSSTWPSETVTCNVAHPASSTKVDKKIVPRDCGGGGSEDQVDPRLIDGK
# Assays:
# [1] = biological target: T1, wild type human MIC-1 (human, UniProt Q99988 197-308); assay: SPR; GFRAL fragment as analyte over immobilised wtMIC-1; relative to hGFRAL(ECR) set as 100%
# T1 construct: also called wtMIC-1; hMIC-1
# T1 sequence: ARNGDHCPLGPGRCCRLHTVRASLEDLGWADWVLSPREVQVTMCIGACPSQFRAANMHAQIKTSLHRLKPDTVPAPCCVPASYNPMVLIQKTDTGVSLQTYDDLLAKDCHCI
# Procedure: MIC-1 interactions with soluble GFRAL fragments were assessed by SPR-based binding assay. A Biacore® 4000 (GE Healthcare, Piscataway, N.J., USA) instrument was used for SPR-based binding assay. The assays were performed at 25° C. at flow rates of 30 μL/minute in 1× HBS-P running buffer (BR-1006-71, GE Healthcare, Piscataway, N.J., USA). Purified GFRAL fragments at various concentrations were run as flow-through analyte and wtMIC-1 was immobilized as ligand. Please see FIG. 6 and Table 5.
# [2] = biological target: T2, hPSPN (human, UniProt O60542 61-156, limits assumed); assay: SPR; ligand as analyte over immobilised hGFRAL(ECR)-Fab-HPC4
# T2 sequence (looked up): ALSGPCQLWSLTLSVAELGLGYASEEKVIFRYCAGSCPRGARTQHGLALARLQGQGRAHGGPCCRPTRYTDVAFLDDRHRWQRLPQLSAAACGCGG
# From the text: (§1) For SPR-based binding assay, wtMIC-1 as well as hGDNF, hNRTN, hARTN and hPSPN, at various concentrations were run as flow-through analytes. hGFRAL(ECR)-Fab and mGFRAL(ECR)-Fab were immobilized as ligand. […] FCRL2-Fab-HPC4 (Ctrl.-Fab-HPC4) was used as control. Please see FIG. 5 and Table 4.
# [3] = biological target: T3, hGDNF (human, UniProt P39905 78-211); assay: as above
# T3 sequence (looked up): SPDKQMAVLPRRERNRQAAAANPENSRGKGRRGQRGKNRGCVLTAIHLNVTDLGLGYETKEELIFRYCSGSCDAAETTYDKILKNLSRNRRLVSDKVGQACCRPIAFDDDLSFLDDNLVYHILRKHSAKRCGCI
# From the text: as §1
# [4] = biological target: T4, hNRTN (human, UniProt Q99748 96-197); assay: as above
# T4 sequence (looked up): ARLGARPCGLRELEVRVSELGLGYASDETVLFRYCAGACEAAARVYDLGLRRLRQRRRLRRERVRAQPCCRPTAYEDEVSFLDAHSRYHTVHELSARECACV
# From the text: as §1
# [5] = biological target: T5, hARTN (human, UniProt Q5T4W7 108-220); assay: as above
# T5 sequence (looked up): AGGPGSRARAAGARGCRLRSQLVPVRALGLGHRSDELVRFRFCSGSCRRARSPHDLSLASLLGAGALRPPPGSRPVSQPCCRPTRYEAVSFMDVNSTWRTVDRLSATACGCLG
# From the text: as §1
binder,measurement,setting,value
B1,% of Binding,[1],100%
same,binding result,[2],no binding
same,binding result,[3],no binding
same,binding result,[4],no binding
same,binding result,[5],no binding

# — patent publication US20190025332A1 (Novo Nordisk, published 2019)
